From US12187807B2, “Antibody molecules to C5AR1 and uses thereof” (Visterra, Inc., priority 2020, dated 2025)

T1: biotinylated peptide representing the N-terminus of C5aR1 with tyrosine sulfation (Homo sapiens, UniProt P21730)
T1 construct: the N-terminus with tyrosine sulfation
T1 sequence (P21730 1-37): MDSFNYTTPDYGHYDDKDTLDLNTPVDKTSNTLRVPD

T2: biotinylated peptide representing the N-terminus of C5aR1 without tyrosine sulfation (Homo sapiens, UniProt P21730)
T2 construct: the N-terminus without tyrosine sulfation
T2 sequence (P21730 1-37 limits assumed): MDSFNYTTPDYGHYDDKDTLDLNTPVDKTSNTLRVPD

T3: C5aR1 (Homo sapiens, UniProt P21730)
T3 sequence (P21730 1-350): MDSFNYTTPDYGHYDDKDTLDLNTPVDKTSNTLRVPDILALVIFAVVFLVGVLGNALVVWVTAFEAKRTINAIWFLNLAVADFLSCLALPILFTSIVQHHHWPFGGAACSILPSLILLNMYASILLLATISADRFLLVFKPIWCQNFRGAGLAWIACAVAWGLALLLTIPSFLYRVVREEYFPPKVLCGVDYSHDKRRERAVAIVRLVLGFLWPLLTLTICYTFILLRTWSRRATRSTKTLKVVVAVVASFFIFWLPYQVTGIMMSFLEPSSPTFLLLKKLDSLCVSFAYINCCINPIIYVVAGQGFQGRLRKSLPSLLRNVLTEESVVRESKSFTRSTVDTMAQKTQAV


Assays:
[1] = molecular target: T4, biotinylated peptide representing ECL2 of C5aR1 (Homo sapiens, UniProt P21730); assay: Epitope mapping by biolayer interferometry, ECL2 peptide; format: binding; set-up: key: “+” indicates binding to the listed peptide; “−” indicates lack of binding to the listed peptide
T4 construct: cyclic ECL2 peptide spanning from residues R175 to C188
Method: (§1) The epitope mapping was undertaken, using biolayer interferometry, on a series of exemplary anti-C5aR1 antibodies generated as described in Example 1. Briefly, for each antibody, biotinylated peptides representing ECL2, the N-terminus with tyrosine sulfation, and the N-terminus without tyrosine sulfation, were immobilized in a streptavidin biosensor. Subsequently, the biosensor was exposed to 10 μg/mL of antibody to detect antibody binding to the immobilized peptide. The results of the epitope mapping study are shown in Table 4 (“+” indicates binding to the listed peptide; “−” indicates lack of binding to the listed peptide).

[2] = molecular target: T1, biotinylated peptide representing the N-terminus of C5aR1 with tyrosine sulfation; assay: Epitope mapping by biolayer interferometry, N-terminus with tyrosine sulfation; format: binding; set-up: key: “+” indicates binding to the listed peptide; “−” indicates lack of binding to the listed peptide; details: 10 μg/mL of antibody, biotinylated peptide on streptavidin biosensor
Method: as §1

[3] = molecular target: T2, biotinylated peptide representing the N-terminus of C5aR1 without tyrosine sulfation; assay: Epitope mapping by biolayer interferometry, N-terminus without tyrosine sulfation; format: binding; set-up: key: “+” indicates binding to the listed peptide; “−” indicates lack of binding to the listed peptide; details: 10 μg/mL of antibody, biotinylated peptide on streptavidin biosensor
Method: as §1

[4] = test system: C5aR1 mutants (N-terminus, ECL1, ECL2, ECL3); assay: Alanine scanning / mutagenesis epitope mapping of C5aR1; format: binding, human
Description: FIG. 5A is a diagram showing the results of alanine scanning mutations of site I interaction with mab 583. The N-terminal amino acid sequence of C5aR1 is listed across the top of the figure. Glycosylation sites are indicated by rectangle boxes. The only natural glycosylation site is at position N5. The other sites were introduced by mutagenesis. Mutations that abolished clone 583 binding are circled. The sulfated tyrosines at positions 11 and 14 are marked with a star sign. FIG. 5B is a diagram showing results of alanine scanning mutations of site I interaction with mab 66. Mutations that abolished clone 66 binding are circled. The sulfated tyrosines at positions 11 and 14 are marked with a star sign.
Ala substitutions of T8 & D10 moderately reduces its affinity while Y11 & D15 abolishes mAb binding. […] N-glycosylation of at N17 or D17P also abolishes mAb binding. N5 glycan is tolerated but a tandem glycosylation (N5 & N17) is not tolerated. mAb core epitopes are T8-G12 but nature of AA present in D15-D18 influence its binding. […] The core epitope appears to be located near T8-G12, with additional contributions from D15-D18.
Clone 66 was previously characterized as a site I binder and its binding is dependent on tyrosine sulfation at positions 11Y and/or 14Y. […] It should be noted that the only the only non-human species to retain clone 66 binding was baboon, which is the only NHP that retains the DYGHY motif.
However, it was unknown if additional contacts were made with ECL1 or ECL3. […] The data is highlighted in FIG. 5C-5E.
The core epitope of clone 11 is from E180-P183; the core epitope of clone 329 is from E180-P184; and the core epitope of clone 336 is from R178-P183. […] The data for clones 11, 329, and 336 is highlighted in FIG. 5F.

C5aR1 = molecular target: T3, C5aR1; assay: GeneBLAzer reporter assay (C5aR1 mediated Gα signaling); format: cell-based; set-up: host or cells: vendor's C5aR1 GeneBLAzer reporter cell line; details: for antagonism of C5aR1 compared to reference antibodies or to Avacopan: 10 nM of antibody, 10 nM C5a; for inhibition of C5aR1 signaling / activity in the GeneBLAzer assay: C5a dose response with varying concentrations of antibody; for inhibition of C5aR1 mediated Gα signaling in the presence of C5-alpha: U937 cells, increasing concentrations of C5-alpha, FIGS. 20A-20G
Method: In addition, a GeneBLAzer reporter assay was used, which mimics the calcium flux assay. The GeneBLAzer assay kit and C5aR1 cell line were commercially available from Thermo Fisher (Catalog #K1544). The assay was performed as recommend by the manufacturer. Briefly, antibodies or antagonists were incubated for 30 minutes at 37° C. C5a was then added to the cells and incubated at 37° C. for an additional 4-5 hours. Beta-lactamase substrate was then added and incubated for 2 hours at room temperature. Fluorescent measurements for each well with an excitation/emission of 409/460 (blue) and 409/530 (green) were measured. An increase in the blue to green ratio was proportional to C5aR1 activation and was used to calculate the percent of activation for the cells in each well.
Exemplary anti-C5aR1 antibodies generated as described in Example 1 were screened for antagonist activity against human C5aR1 using the GeneBLAzer assay, as described in Example 1. Briefly, cells were pre-incubated with 10 nM of antibody followed by addition of 10 nM C5a. The engineered induction of beta-lactamase expression by C5a-C5aR1 signaling was measured using the BLA substrate and calculating the ratio of blue and green fluorescence.

[5] = biolayer interferometry, 10 μg/mL of antibody, biotinylated peptide on streptavidin biosensor

| Molecule | Binding to Cyclic ECL2 peptide [1, 5] | Binding to Cyclic ECL2 peptide ([1]; peptide spanning residues R175 to C188) | Binding to Sulfated N-terminal peptide [2] | Binding to Non-sulfated N-terminal peptide [3] | binding to C5aR1 mutant ([4]; Ala mutation of E180 & Y181) | binding to C5aR1 mutant ([4]; mutation of Y182, P183 & P184) | antagonism of C5aR1 compared to reference antibodies or to Avacopan (C5aR1) | inhibition of C5aR1 signaling / activity in the GeneBLAzer assay (C5aR1) | inhibition of C5aR1 mediated Gα signaling in the presence of C5-alpha (C5aR1) | cross-reactivity to cyno and rhesus monkey [4] | requirement of tyrosine sulfation (Y11, Y14) for binding [4] | binding to C5aR1 mutant ([4]; G12A/T) | binding to C5aR1 mutant ([4]; G12E/D) | binding to C5aR1 mutant ([4]; mutations at D15) | binding to C5aR1 mutant ([4]; mutations at positions 13 and 14) | non-human species that retains binding [4] |
| --- | --- | --- | --- | --- | --- | --- | --- | --- | --- | --- | --- | --- | --- | --- | --- | --- |
| clone 329: anti-C5aR1 Site II antibody; VH SEQ ID NO: 492, VL SEQ ID NO: 552 (antibody, V domains shown) VH: QVQLQQSGAELTKPGASVKLSCKASGYTFTNYWMHWVKQRPGQGLEWIGYLNPSSGYTKYNQKFKDKATLTADKSSSTAYMQLNSLTYEDSAVYYCTRSGGDNYGNPYYFDRWGQGTTVTVSS VL: DVVMTQTPLSLTVSLGDQASISCRSSQSLVHSNGNTYLHWYLQKPGQSPKFLIYKVSNRFSGVPDRFSGSGSGTDFRLKISRVEAEDLGVYFCSQSTLVPLTFGAGTKLEIK | + | bound to a cyclic ECL2 peptide | − | − | abolished mAb binding | reduced binding | improved | inhibited in a dose-dependent fashion | inhibition of C5aR1 mediated Gα signaling |  |  |  |  |  |  |  |
| clone 583: anti-C5aR1 Site I antibody; VH SEQ ID NO: 536, VL SEQ ID NO: 595 (antibody, V domains shown) VH: EVQLVESGGGLVKPGGSLKLSCAASGFTFNAYAMSWVRQTPEKRLEWVASISTGGNTYCPDSVKDRFTVSRDNVRNILYLQMSSLRSEDTAMYYCTRGYQRFSGFAYWGQGTLVTVS VL: DVVMTQTPLSPPVSLGYQASISCRSSQSLVHSNGNTYLNWYLQKPGQSPKLLIYKVSNRLSGVPDRFSGSGSGTDFTLKISRVETEDLGVYFCSQSTHVPYTFGGGTKLEIK | − |  | + | + |  |  | improved | highly potent | inhibition of C5aR1 mediated Gα signaling | lack of cross-reactivity | tyrosine sulfation is not required | tolerated | abolish binding | abolish binding | tolerated |  |
| clone 66: anti-C5aR1 Site I antibody; VH SEQ ID NO: 483, VL SEQ ID NO: 543 (antibody, V domains shown) VH: QVQLQQSDAELVKPGASVKISCKASGYTFIDHAIHWVKQRPEQGLEWIGYISPGNGEIKYNEKFKAKATLTADKSSSAAYMQLNSLTSADSAVYFCKRALFYYTGKYQPMDYWGQGTTVTDSS VL: DIVMTQSQKFMSTTAGDRVSITCKASQNVGSAVVWYQQKPGRSPKLLIYSSSIRYTGVPDRFTGSGSGTDFTLTINSVQSEDLADYFCQQYNSFPLTFGAGTKLEIK | − |  | + | − |  |  |  | highly potent |  |  | sulfation is only required at position 14 |  |  |  |  | baboon |
